The values that follow come from IntAct's records for PubMed 15161910.

B1: Serine/threonine-protein kinase Nek2 (Homo sapiens), P51955 (parent)
chain: MPSRAEDYEVLYTIGTGSYGRCQKIRRKSDGKILVWKELDYGSMTEAEKQMLVSEVNLLRELKHPNIVRYYDRIIDRTNTTLYIVMEYCEGGDLASVITKGTKERQYLDEEFVLRVMTQLTLALKECHRRSDGGHTVLHRDLKPANVFLDGKQNVKLGDFGLARILNHDTSFAKTFVGTPYYMSPEQMNRMSYNEKSDIWSLGCLLYELCALMPPFTAFSQKELAGKIREGKFRRIPYRYSDELNEIITRMLNLKDYHRPSVEEILENPLIADLVADEQRRNLERRGRQLGEPEKSQDSSPVLSELKLKEIQLQERERALKAREERLEQKEQELCVRERLAEDKLARAENLLKNYSLLKERKFLSLASNPELLNLPSSVIKKKVHFSGESKENIMRSENSESQLTSKSKCKDLKKRLHAAQLRAQALSDIEKNYQLKSRQILGMR
partner: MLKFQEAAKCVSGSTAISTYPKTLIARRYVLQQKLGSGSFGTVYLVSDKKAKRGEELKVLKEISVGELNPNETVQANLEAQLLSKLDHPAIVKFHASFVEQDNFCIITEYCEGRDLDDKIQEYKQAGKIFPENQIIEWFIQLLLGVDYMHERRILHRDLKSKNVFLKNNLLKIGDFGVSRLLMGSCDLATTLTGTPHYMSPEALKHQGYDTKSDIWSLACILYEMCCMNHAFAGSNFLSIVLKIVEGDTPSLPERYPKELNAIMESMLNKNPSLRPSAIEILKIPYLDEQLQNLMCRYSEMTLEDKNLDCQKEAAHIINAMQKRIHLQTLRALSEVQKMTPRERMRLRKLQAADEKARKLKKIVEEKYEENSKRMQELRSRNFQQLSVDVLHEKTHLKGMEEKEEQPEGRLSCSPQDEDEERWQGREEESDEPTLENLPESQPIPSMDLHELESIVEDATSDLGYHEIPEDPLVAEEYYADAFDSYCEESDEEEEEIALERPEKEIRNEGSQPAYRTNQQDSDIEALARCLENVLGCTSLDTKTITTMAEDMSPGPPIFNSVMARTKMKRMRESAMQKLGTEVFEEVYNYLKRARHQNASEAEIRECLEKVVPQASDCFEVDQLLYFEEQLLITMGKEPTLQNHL

The variants in one test derive from B1. Conditions: with nek11_human NEK11, Q8NG66.
Consider MPSRAEDYEVLYTIGTGSYGRCQKIRRKSDGKILVWRELDYGSMTEAEKQMLVSEVNLLRELKHPNIVRYYDRIIDRTNTTLYIVMEYCEGGDLASVITKGTKERQYLDEEFVLRVMTQLTLALKECHRRSDGGHTVLHRDLKPANVFLDGKQNVKLGDFGLARILNHDTSFAKTFVGTPYYMSPEQMNRMSYNEKSDIWSLGCLLYELCALMPPFTAFSQKELAGKIREGKFRRIPYRYSDELNEIITRMLNLKDYHRPSVEEILENPLIADLVADEQRRNLERRGRQLGEPEKSQDSSPVLSELKLKEIQLQERERALKAREERLEQKEQELCVRERLAEDKLARAENLLKNYSLLKERKFLSLASNPELLNLPSSVIKKKVHFSGESKENIMRSENSESQLTSKSKCKDLKKRLHAAQLRAQALSDIEKNYQLKSRQILGMR [K37R], for which the “effect of a mutation on the interaction” value is “decreasing interaction”.

The next test covers variants of B1. Conditions: with nek11_human NEK11, Q8NG66. This is another data set of the same source.
For the variant MPSRAEDYEVLYTIGTGSYGRCQKIRRKSDGKILVWRELDYGSMTEAEKQMLVSEVNLLRELKHPNIVRYYDRIIDRTNTTLYIVMEYCEGGDLASVITKGTKERQYLDEEFVLRVMTQLTLALKECHRRSDGGHTVLHRDLKPANVFLDGKQNVKLGDFGLARILNHDTSFAKTFVGTPYYMSPEQMNRMSYNEKSDIWSLGCLLYELCALMPPFTAFSQKELAGKIREGKFRRIPYRYSDELNEIITRMLNLKDYHRPSVEEILENPLIADLVADEQRRNLERRGRQLGEPEKSQDSSPVLSELKLKEIQLQERERALKAREERLEQKEQELCVRERLAEDKLARAENLLKNYSLLKERKFLSLASNPELLNLPSSVIKKKVHFSGESKENIMRSENSESQLTSKSKCKDLKKRLHAAQLRAQALSDIEKNYQLKSRQILGMR [K37R], the “effect of a mutation on the interaction” value is “increasing interaction”.
